The values that follow come from patent publication US20060153883A1 (Chugai, published 2006).

The assay addresses T1, HA tag-carrying soluble HM1.24 antigen sHM164 (HM1.24 antigen extracellular region in which the C terminal … (human, UniProt Q10589 49-163, limits assumed)).
T1 construct: also called HA-sHM164
T1 sequence: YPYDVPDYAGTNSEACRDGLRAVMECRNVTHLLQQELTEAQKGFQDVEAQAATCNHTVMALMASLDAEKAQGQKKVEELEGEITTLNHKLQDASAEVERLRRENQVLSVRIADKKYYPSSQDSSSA
Description: sandwich ELISA: anti-HA antibody coated, CHO culture supernatant, humanized anti-HM1.24 antibody as detector, AP-labeled anti-human IgG. The procedure: The soluble human HM1.24 ELISA described below was conducted as follows. In order to select a highly productive strain, the amount of the soluble protein produced was compared by a sandwich ELISA using anti-HA antibody (Boehringer Mannheim) and a humanized anti-HM1.24 antibody (K. Ono et al., The 20th Japan Molecular Biology Annual Meeting, General Lecture 3-501-P-478), whereby selecting the strain. Since the antigen concentration was not known because a purified antigen was not obtained, the number of the cells upon the ELISA was taken into account when comparing the concentration.
An anti-HA antibody (Boehringer Mannheim) was adjusted at 1 μg/ml in a Coating Buffer (C.B.: 0.1 mol/L sodium bicarbonate buffer, pH 9.6, 0.2% sodium azide) was added to a plane bottom 96-well plate (Nunc) in the volume of 100 μl/well, and coated overnight at 4° C.
A general note: In an ELISA, binding on a coated surface is turned into a signal by an enzyme label.

B1: reconstructed human anti-HM1.24 antibody (humanized anti-HM1.24 antibody), light chain version a and heavy chain version s described in WO98/14580 (antibody, V domains shown)
VH: QVQLVQSGAEVKKPGASVKVSCKASGYTFTPYWMQWVRQAPGQGLEWMGSIFPGDGDTRYSQKFKGRVTITADKSTSTAYMELSSLRSEDTAVYYCARGLRRGGYYFDYWGQGTTVTVSS
VL: DIQMTQSPSSLSASVGDRVTITCKASQDVNTAVAWYQQKPGKAPKLLIYSASNRYTGVPSRFSGSGSGTDFTFTISSLQPEDIATYYCQQHYSTPFTFGQGTKVEIK
notes: Plasmid names point to a human gamma 1 heavy and a kappa light constant region; It was detected with an anti-human IgG antibody in the ELISA
For B1, the binding result was “binds”.
